{"source": "patent US6362319B1", "about": "“Glial cell line-derived neurotrophic factor” (Amgen Inc., priority 1991, dated 2002)", "molecules": {"B1": {"name": "glial cell line-derived neurotrophic factor (protein)", "chain": "SNMPEDYPDQFDDVMDFIQATIKRLKRSPDKQMAVLPRRERNRQAAAANPENSRGKGRRGQRGKNRGCVLTAIHLNVTDLGLGYETKEELIFRYCSGSCDAAETTYDKILKNLSRNRRLVTDKVGQACCRPIAF", "notes": "dopaminergic neurotrophic protein purified from serum-free conditioned medium of rat B49 glioblastoma cells; disulfide-bonded dimer"}}, "key": {"[1]": {"test_system": "sympathetic neurons from chick embryo sympathetic chain ganglia", "assay": "Neuronal survival assay (MTT), sympathetic chain ganglia", "type": "cell-based", "description": "Cultures of primary check embryo ciliary ganglia and sympathetic chain ganglia were prepared as previously described (Collins 1978 Develop. Biol. 65:50; Manthorpe et al. 1986 Develop. Brain Res. 25:191). Briefly, ciliary or sympathetic ganglia were removed from fertile, pathogen free chicken eggs that had been incubated for 8 and 10 days, respectively, at 38° C. in a humidified atmosphere. The ganglia were chemically dissociated by exposure first to Hands' Balanced Salt Solution without divalent cations, containing 10 mM HEPES buffer pH 7.2 for 10 min at 37° C., and then by exposure to a solution of 0.125% bactotrypsin 1:250 (Difco, Detroit, Mich.) in Hanks' Balanced Salt Solution modified as above for 12 min at 37° C. Trypsinization was stopped by addition of fetal calf serum to a final concentration of 10%.\nAfter this treatment, ganglia were transferred to a solution consisting of Dulbecco's high glucose Modified Eagle Medium without bicarbonate containing 10% fetal calf serum and 10 mM HEPES, pH 7.2 and were mechanially dissociated by trituration approximately 10 times through a glass Pasteur pipet whose opening had been fire polished and constricted to a diameter such that it took 2 seconds to fill the pipet.\nThe dissociated ganglia were then plated in culture medium (Dulbecco's Modified Eagle Medium supplemented with 10% fetal calf serum, 4 mM glutamine, 60 mg/L penicillin-G, 25 mM HEPES, pH 7.2) in 100 mm diameter tissue culture dishes (40 dissociated ganglia per dish) for three hours. […] After three hours, the nonadherent nerve cells were collection by centrifugation, resuspended in culture medium, and plated in 50 μl per well onto half area 96 well microtiter tissue culture plates at a density of 1500 nerve cells per well. The microtiter wells had been previously exposed to a 1 mg/ml solution of poly-L-ornithine in 10 mM sodium borate, pH 8.4 overnight at 4° C., washed in distilled water and air dried.\nTen μl of a serial dilution of the sample to be assayed for neurotrophic activity was added to each well and the dishes were incubated for 20 hours at 37° C. in a humidified atmosphere containing 7.5% CO2. After 18 hours for ciliary and 40 hours for sympathetic ganglia, 15 μl per well of a 1.5 mg/ml solution of the tetrasolium dye MTT in Dulbecco's high glucose Modified Eagle Medium without bicarbonate containing 10 mM HEPES, pH 7.2, was added and the cultures placed in the 37° C. incubator for 4 hours. Then, 75 μl of a solution of 6.7 ml of 12 M HCl per liter of isopropanol was added and the contents of each well triturated 30 times to break open the cells and suspend the dye. The absorbance of 570 nm was determined relative to a 690 nm reference for each well using an automatic microtiter plate reader (Dynatech, Chantilly, Va.). The absorbance of wells which had not received any neurotrophic agent (negative controls) was substracted from the absorbance of sample-containing wells. The resulting absorbance is proportional to the number of living cells in each well, defined as those nerve cells capable of reducing the dye. The number of trophic units of neurotrophic activity was defined as the reciprocal of the dilution that gave 50% of maximal survival of nerve cells. Specific activity was determined by dividing the number of trophic units by the amount of protein present in the sample."}, "[2]": {"test_system": "parasympathetic nerve cells from chick embryo ciliary ganglia", "assay": "Neuronal survival assay (MTT), ciliary ganglia", "type": "cell-based", "description": "Cultures of primary check embryo ciliary ganglia and sympathetic chain ganglia were prepared as previously described (Collins 1978 Develop. Biol. 65:50; Manthorpe et al. 1986 Develop. Brain Res. 25:191). Briefly, ciliary or sympathetic ganglia were removed from fertile, pathogen free chicken eggs that had been incubated for 8 and 10 days, respectively, at 38° C. in a humidified atmosphere. […]\nTen μl of a serial dilution of the sample to be assayed for neurotrophic activity was added to each well and the dishes were incubated for 20 hours at 37° C. in a humidified atmosphere containing 7.5% CO2. […] The absorbance of 570 nm was determined relative to a 690 nm reference for each well using an automatic microtiter plate reader (Dynatech, Chantilly, Va.). The absorbance of wells which had not received any neurotrophic agent (negative controls) was substracted from the absorbance of sample-containing wells. The resulting absorbance is proportional to the number of living cells in each well, defined as those nerve cells capable of reducing the dye. […] Specific activity was determined by dividing the number of trophic units by the amount of protein present in the sample."}, "[3]": {"test_system": "dopaminergic neurons in rat embryo (E16) mesencephalic cell cultures", "assay": "Bioassay for dopaminergic neurotrophic activity: 3H-dopamine uptake in dissociated mesencephalic cell cultures", "type": "cell-based", "settings": "cultures grown with GDNF for 15 days"}, "[4]": {"test_system": "TH+ dopamine neurons in mesencephalic cultures", "assay": "Tyrosine hydroxylase (TH) immunoreactivity in mesencephalic cultures", "type": "cell-based, rat", "settings": "added at day of plating, examined eight days later", "description": "FIGS. 20A-B depicts the ability of GDNF to stimulate dopamine uptake and tyrosine hydroxylase (TH) immunostaining in dopaminergic neurons. Cultures were established as described in Example 1B. […] B. […] Primary antibody binding was visualized using a Vectastain ABC kit (Vector Labs, Burlingame, Calif.).\nCulture conditions: Dissociated mesencephalic cell cultures were prepared as previously described (Friedman and Mytilineou 1987 Neurosci. Lett. 79:65-72), with minor modifications. Briefly, rostral mesencephalic tegmentum from brains of Sprague-Dawley rat embryos, at the 16th day of gestation, were dissected under the microscope in sterile conditions, collected in Ca^2+- and Mg^2+-free Dulbecco's phosphate buffered saline (Gibco, Gaithersburg, Md.) and dissociated mechanically by mild trituration. The cells were plated in 100 μl per well onto 16-mm diameter tissue culture wells (Falcon, Lincoln Park, N.J., 24-well plate) containing 400 μl medium to give a density of 2.5-3.5×10^5 cells per well. The culture wells had been previously exposed to 0.1 mg/ml solution of poly L-ornithine in 10 mM sodium borate, pH 8.4, for 3 hours at 37° C., washed 3 times in milli-Q H2O and once in Earle's balanced salt solution (Gibco). […]"}}}
{"molecule": "B1", "values": [{"measurement": "bioactivity in sympathetic neuron survival bioassay", "setting": "[1]", "value": "promotes the survival in culture of symphathetic nerve cells"}, {"measurement": "ED50 for sympathetic neuron survival", "setting": "[1]; chick embryo (E10) sympathetic ganglia", "value": "about 5 ng/ml"}, {"measurement": "survival of parasympathetic nerve cells", "setting": "[2]", "value": "promotes the survival in culture of parasympathetic nerve cells"}, {"measurement": "3H-DA uptake capacity over control without GDNF", "setting": "[3]", "value": "~150", "unit": "%"}, {"measurement": "number of TH+ neurons over controls without GDNF", "setting": "[4]", "value": "tenfold higher"}]}
